What all share (format): ADME
In data set [1] the test system is Nc1ccn([C@@H]2O[C@H](CO)[C@@H](O)C2(F)F)c(=O)n1. Put plainly: Activity of human recombinant N-terminal His-SUMO fused CDA Ala70Thr mutant expressed in Escherichia coli BL21(DE3) cells assessed as 2',2'-difluorodeoxyuridine formation by liquid chromatography-tandem mass spectrometry.
Data set [2] has the same test system. Put plainly: Activity of human recombinant N-terminal His-SUMO fused CDA Lys27Gln mutant expressed in Escherichia coli BL21(DE3) cells assessed as 2',2'-difluorodeoxyuridine formation by liquid chromatography-tandem mass spectrometry.
Data set [3] shares this test system. Put plainly: Activity of human recombinant N-terminal His-tagged wild type DCK expressed in Escherichia coli BL21(DE3) cells assessed as enzyme-mediated […] incubated for 1 min by liquid chromatography-tandem mass spectrometry.

What is called Km is the substrate concentration at which the rate is half of its maximum. In general, Vmax refers to the top rate of the reaction or transport when substrate is in excess.

Sequence of Deoxycytidine kinase (Homo sapiens) (chain, as listed by the source): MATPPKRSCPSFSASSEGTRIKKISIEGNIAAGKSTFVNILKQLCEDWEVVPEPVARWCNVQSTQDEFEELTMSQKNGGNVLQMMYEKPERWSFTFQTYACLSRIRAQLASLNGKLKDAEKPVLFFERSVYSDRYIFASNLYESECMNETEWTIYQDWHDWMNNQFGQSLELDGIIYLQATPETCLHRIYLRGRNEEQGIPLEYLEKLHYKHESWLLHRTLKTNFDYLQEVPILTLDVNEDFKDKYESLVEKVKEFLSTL

Cytidine deaminase (Homo sapiens; A70T): in data set [1], the Michaelis constant (Km) was 610 µM and the Vmax amounted to 0.151 µmol/min/mg.

Take Cytidine deaminase (Homo sapiens; K27Q): in data set [2], the Km is 562 µM and the maximal velocity (Vmax) worked out at 0.195 µmol/min/mg.

Consider Deoxycytidine kinase (Homo sapiens), for which, in data set [3], the Km was determined as 2.15 µM and the Vmax amounted to 1.06 µmol/min/mg.

(Values after ChEMBL document CHEMBL3525898, “Pharmacogenomics of gemcitabine metabolism: functional analysis of genetic variants in cytidine deaminase and deoxycytidine kinase” (Drug Metab Dispos, 2013).)
